These results are taken from PMC2953525, “Subtle Alterations in PCNA-Partner Interactions Severely Impair DNA Replication and Repair” (PLoS Biology, 2010).

Experiment in all cases: two-hybrid; quantitative Y2H: generation time of the YRG2 strains in liquid SC-Leu-Trp-His, given relative to cells expressing WT PCNA; average of at least 3 experiments
Common to all, as to conditions: partners not purified

One assay deals with T1, pol30-Rad27E31 (yeast, UniProt P15873 1-258, IDCL DIDADFLKIEEL to DGDYDVLKIREL).
T1 construct: PCNA (POL30), yeast; source: yeast two-hybrid fusion (pAD-GAL4, strain YRG2)
T1 sequence: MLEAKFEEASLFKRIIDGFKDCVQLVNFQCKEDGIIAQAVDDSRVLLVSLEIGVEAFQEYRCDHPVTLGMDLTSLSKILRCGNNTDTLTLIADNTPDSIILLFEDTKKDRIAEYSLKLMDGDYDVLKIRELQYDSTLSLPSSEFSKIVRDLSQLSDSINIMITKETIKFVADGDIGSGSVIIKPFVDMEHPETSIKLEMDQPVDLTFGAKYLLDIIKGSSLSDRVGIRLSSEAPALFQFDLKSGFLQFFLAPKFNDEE

For the next assay, the target named is T2, pol30-79 (yeast, UniProt P15873 1-258, IDCL DIDADFLKIEEL to DIDADFAKAEEL).
T2 construct: PCNA (POL30), yeast; the changes are then L126A and I128A; also called PCNA79; source: yeast two-hybrid fusion (pAD-GAL4, strain YRG2)
T2 sequence: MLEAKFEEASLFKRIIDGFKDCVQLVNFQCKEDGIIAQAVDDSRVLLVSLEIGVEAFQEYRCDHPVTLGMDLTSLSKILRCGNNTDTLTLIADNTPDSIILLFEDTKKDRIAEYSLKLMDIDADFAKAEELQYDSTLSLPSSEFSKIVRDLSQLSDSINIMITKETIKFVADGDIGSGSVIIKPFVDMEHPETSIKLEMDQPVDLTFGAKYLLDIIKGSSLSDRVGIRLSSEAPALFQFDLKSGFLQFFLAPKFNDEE

The next assay has as its target T3, pol30-Rad27L2 (yeast, UniProt P15873 1-258, IDCL DIDADFLKIEEL to D––VDTLKITEL).
T3 construct: PCNA (POL30), yeast; two residues after the first aspartic acid of the IDCL are deleted; source: yeast two-hybrid fusion (pAD-GAL4, strain YRG2)
T3 sequence: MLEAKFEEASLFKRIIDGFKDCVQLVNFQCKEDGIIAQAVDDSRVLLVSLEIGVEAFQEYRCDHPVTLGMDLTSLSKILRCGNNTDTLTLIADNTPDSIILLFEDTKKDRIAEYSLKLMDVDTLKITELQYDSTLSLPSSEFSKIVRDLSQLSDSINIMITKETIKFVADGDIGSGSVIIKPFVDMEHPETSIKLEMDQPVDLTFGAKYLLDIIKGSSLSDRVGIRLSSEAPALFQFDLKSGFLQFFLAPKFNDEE

In the next assay the target is T4, pol30-Rad30E2 (yeast, UniProt P15873 1-258, IDCL DIDADFLKIEEL to DDDWDFLKILEL).
T4 construct: PCNA (POL30), yeast; source: yeast two-hybrid fusion (pAD-GAL4, strain YRG2)
T4 sequence: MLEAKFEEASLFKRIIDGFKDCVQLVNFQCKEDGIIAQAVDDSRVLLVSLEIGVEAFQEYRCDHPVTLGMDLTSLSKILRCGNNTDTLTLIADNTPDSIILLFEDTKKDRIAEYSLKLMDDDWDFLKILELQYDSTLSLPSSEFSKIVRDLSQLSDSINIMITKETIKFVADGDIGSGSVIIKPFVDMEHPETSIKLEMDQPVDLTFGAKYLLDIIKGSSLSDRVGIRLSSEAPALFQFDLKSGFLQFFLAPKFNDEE

In a further assay the target is T5, pol30-Rad30E9 (yeast, UniProt P15873 1-258, IDCL DIDADFLKIEEL to DNDWDFLKIDEL).
T5 construct: PCNA (POL30), yeast; also called Pol30-Rad30E9p; source: yeast two-hybrid fusion (pAD-GAL4, strain YRG2)
T5 sequence: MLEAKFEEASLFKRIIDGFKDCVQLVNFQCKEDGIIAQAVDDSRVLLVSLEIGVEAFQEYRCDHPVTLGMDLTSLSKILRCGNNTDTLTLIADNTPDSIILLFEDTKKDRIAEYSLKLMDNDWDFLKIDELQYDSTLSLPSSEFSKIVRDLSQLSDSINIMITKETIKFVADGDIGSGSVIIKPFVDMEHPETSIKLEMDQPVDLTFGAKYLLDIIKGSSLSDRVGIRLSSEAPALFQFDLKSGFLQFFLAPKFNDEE

B1: Rad27 (natural protein, yeast, UniProt P26793 1-382, looked up)
chain: MGIKGLNAIISEHVPSAIRKSDIKSFFGRKVAIDASMSLYQFLIAVRQQDGGQLTNEAGETTSHLMGMFYRTLRMIDNGIKPCYVFDGKPPDLKSHELTKRSSRRVETEKKLAEATTELEKMKQERRLVKVSKEHNEEAQKLLGLMGIPYIIAPTEAEAQCAELAKKGKVYAAASEDMDTLCYRTPFLLRHLTFSEAKKEPIHEIDTELVLRGLDLTIEQFVDLCIMLGCDYCESIRGVGPVTALKLIKTHGSIEKIVEFIESGESNNTKWKIPEDWPYKQARMLFLDPEVIDGNEINLKWSPPKEKELIEYLCDDKKFSEERVKSGISRLKKGLKSGIQGRLDGFFQVVPKTKEQLAAAAKRAQENKKLNKNKNKVTKGRR
notes: Rad27 (endonuclease), yeast; also called pBD-Rad27; source: yeast two-hybrid fusion (pBD-GAL4, strain YRG2)
As for B1, the “fold change in affinity relative to WT PCNA (Y2H generation time)” value in the assay with pol30-Rad27E31 is 1.5 fold; in the assay with pol30-79, 0.5 fold; with pol30-Rad27L2, 1.5 fold; in the assay with pol30-Rad30E2, 0.4 fold; with pol30-Rad30E9, 0.5 fold.
